Test results taken from patent US20100255006A1 (Takeda / Millennium, published 2010).
Values belong to the molecule of their own block, whether it stands above or below them.

What was measured:
[1] = target: caspase-1 as expressed in the IL-1β secretion assays (UniProt P29466); assay: cell-based or functional assay
[2] = target: CARD-5 (ASC) as expressed in the NF-kB and IL-1β secretion assays (UniProt Q9ULZ3 1-195); assay: cell-based or functional assay
[3] = target: T1, CARD of caspase-1 (mammalian two-hybrid construct) (UniProt P29466 1-91); assay: mammalian two-hybrid in 293T cells, pFR-Luc firefly reporter
T1 construct: domain: CARD; also called the CARD of caspase-1; not shown: two-hybrid fusion partner from a pCMV/AD or pCMV/BD plasmid
T1 sequence (looked up): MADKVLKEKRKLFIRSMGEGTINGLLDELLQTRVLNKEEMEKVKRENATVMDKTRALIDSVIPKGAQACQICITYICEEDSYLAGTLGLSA
Procedure: CARD-5 is a relatively small protein containing an N-terminal PYRIN domain and a C-terminal CARD domain (see, e.g., Masumoto et al. (1999) J. Biol. Chem. 274:33835-38). To identify whether the CARD domain of a CARD-containing protein interacted with the CARD of CARD-5, mammalian two-hybrid analysis was carried out using the CARD domains of 22 CARD-containing proteins (FIG. 13A). Mammalian two-hybrid assays were performed as described by Wang et al. (2001) J. Biol. Chem. 276:21405-21409. 293T cells were transfected with pCMV/AD and pCMVIBD plasmids, pFR-Luc firefly reporter (Stratagene), and pRL-TK Renilla reporter (Promega).

secreted IL-1β (ELISA of supernatants of COS-7L cells co-transfected with mouse pro-IL-1β) [1]: 150 to 400 pg/mL
Molecule: CARD-5 (ASC) as expressed in the NF-kB and IL-1β secretion assays (from UniProt Q9ULZ3 1-195)

NF-kB activity (relative luciferase activity, pNF-kB-Luc reporter in 293T cells) [2]: 150 fold
B1: full-length PYRIN-8 (PYRIN-8-FL, residues 1-1061 of SEQ ID NO:18) with a C-terminal FLAG epitope (other, not shown: small tags and cut ends)
chain: MLRTAGRDGLCRLSTYLEELEAVELKKFKLYLGTATELGEGKIPWGSMEKAGPLEMAQLLITHFGPEEAWRLALSTFERINRKDLWERGQREDLVRDTPPGGPSSLGNQSTCLLEVSLVTPRKDPQETYRDYVRRKFRLMEDRNARLGECVNLSHRYTRLLLVKEHSNPMQVQQQLLDTGRGHARTVGHQASPIKIETLFEPDEERPEPPRTVVMQGAAGIGKSMLAHKVMLDWADGKLFQGRFDYLFYINCREMNQSATECSMQDLIFSCWPEPSAPLQELIRVPERLLFIIDGFDELKPSFHDPQGPWCLCWEEKRPTELLLNSLIRKKLLPELSLLITTRPTALEKLHRLLEHPRHVEILGFSEAERKEYFYKYFHNAEQAGQVFNYVRDNEPLFTMCFVPLVCWVVCTCLQQQLEGGGLLRQTSRTTTAVYMLYLLSLMQPKPGAPRLQPPPNQRGLCSLAADGLWNQKILFEEQDLRKHGLDGEDVSAFLNMNIFQKDINCERYYSFIHLSFQEFFAAMYYILDEGEGGAGPDQDVTRLLTEYAFSERSFLALTSRFLFGLLNEETRSHLEKSLCWKVSPHIKMDLLQWIQSKAQSDGSTLQQGSLEFFSCLYEIQEEEFIQQALSHFQVIVVSNIASKMEHMVSSFCLKRCRSAQVLHLYGATYSADGEDRARCSAGAHTLLVQLPERTVLLDAYSEHLAAALCTNPNLIELSLYRNALGSRGVKLLCQGLRHPNCKLQNLRLKRCRISSSACEDLSAALIANKNLTRMDLSGNGVGFPGMMLLCEGLRHPQCRLQMIQLRKCQLESGACQEMASVLGTNPHLVELDLTGNALEDLGLRLLCQGLRHPVCRLRTLWLKICRLTAAACDELASTLSVNQSLRELDLSLNELGDLGVLLLCEGLRHPTCKLQTLRLGICRLGSAACEGLSVVLQANHNLRELDLSFNDLGDWGLWLLAEGLQHPACRLQKLWLDSCGLTAKACENLYFTLGINQTLTDLYLTNNALGDTGVRLLCKRLSHPGCKLRVLWLFGMDLNKMTHSRLAALRVTKPYLDIGC

fold activation of luciferase activity (mammalian two-hybrid) [3]: 24 fold
B2: CARD of CARD-5 (mammalian two-hybrid construct) (other, UniProt Q9ULZ3 107-195, looked up)
chain: AAKPGLHFIDQHRAALIARVTNVEWLLDALYGKVLTDEQYQAVRAEPTNPSKMRKLFSFTPAWNWTCKDLLLQALRESQSYLVEDLERS
notes: domain: CARD; also called CARD domain of CARD-5; the CARD of CARD-5 (ASC); not shown: two-hybrid fusion partner from a pCMV/AD or pCMV/BD plasmid
